From PMC4387078 come the findings set out here.

Substrate in data set [1]: NCCc1ccc(O)c(O)c1
As to the kind of experiment: spectrophotometric laccase assay, product formation. The following applies: pH 7.0. It counts as biochemical, Anopheles gambiae.

Substrate in data set [2]: Oc1ccc(O)cc1
Described as above. It counts as biochemical, Anopheles gambiae. The following applies: pH 7.0.

Substrate in data set [3]: O=C1O[C@H]([C@@H](O)CO)C(O)=C1O
The data set can be described thus: purified protein. It counts as biochemical, Anopheles gambiae. The following applies: 0.1 M sodium phosphate, pH 7.0, allosteric sigmoidal fit.

Substrate in data set [4]: NCCc1ccc(O)c(O)c1
The data set can be described thus: spectrophotometric laccase assay, product formation. The following applies: pH 7.0. The data set is classed as biochemical, Drosophila melanogaster.

Substrate in data set [5]: Oc1ccc(O)cc1
Described as above. The following applies: pH 7.0. It counts as biochemical, Drosophila melanogaster.

Substrate in data set [6]: O=C1O[C@H]([C@@H](O)CO)C(O)=C1O
The data set can be described thus: purified protein. Particulars: 0.1 M sodium phosphate.

Substrate in data set [7]: NCCc1ccc(O)c(O)c1
As to the kind of experiment: spectrophotometric laccase assay, product formation. It counts as biochemical, Trametes versicolor. The following applies: pH for this enzyme not stated.

Substrate in data set [8]: Oc1ccc(O)cc1
Described as above. The following applies: pH for this enzyme not stated. The data set is classed as biochemical, Trametes versicolor.

Setting [9] is: pH 7.0, allosteric sigmoidal fit.

B1: AgMCO1T (Anopheles gambiae) (protein)
chain: VEPEEGVDFYEELSYDNHPCKRACTLGRKPETCYYRFRLEWYRTLSKACYNCPYNATDCERPHCITGDGVRRNVAVINRMMPGPAIEVCENDIIVVDVENHLMGESTTIHWHGLHQRRTPYMDGVPHVSQCPISPGTTFRYTFRADNPGTHFWHSHTGMQRGDGAFGALIIRKDNDIQELLYDHDLSEHVITVQDWGHEQGVSLFASHHHSTGDNKPPNLLINGRGKYFQRFAKTTPLTTTTTSTEEPALEPETIMAVEPESTTLMEELPTTTVPITDAITPDDTELLQASSNTNLKTVLRAEEVRHRTKRQSRTVNFNAIVVPESKHIPLKVFHVDKGRRYRFRLINAEFLNCPVELSIENHNLTVIASDGFGIQPLEDLGSFVSYAGERFDFIVKANQPIGNYLIRFRGLMDCDERFTSAYQFAVLRYRGAPTDTEYESWPPYDYEAPGVQLNSLNRGPGAENVITIAETSALDQEDLLLLRNETDYKFYVYYDFYGKDNPHFHVPSLYGFQQVVNNTNRLYTPQLNHISMRMPPVPFLPGKDVLDESQFCNETSVRDRNCRQEFCECSHVLQIPLHATVEMVMIDEGFTFDANHPFHLHGHAFRVVGMDRVSRNTTIEDIRRMDEEGRLPRRLKRAPIKDTVTIPDGGYTIIRFIANNPGYWLFHCHIEFHAEIGMSLVLKVGDSSEMLPAPANFPTCYDFKPKLGQLGSGGA
Usually Km stands for the substrate concentration at which the rate is half of its maximum. A word on the kcat: it is the maximal rate divided by the concentration of active sites. Broadly, the kcat/Km is the second-order rate constant that governs catalysis at low substrate concentration. Consider B1, for which, in data set [1], the Km worked out at 35.2 ± 3.59 mM, the kcat stood at 0.258 ± 0.0183 s⁻¹ and the kcat/Km amounted to 6.67 M⁻¹ s⁻¹. In data set [2], the Km was 31.9 ± 3.75 mM, the kcat worked out at 1.58 ± 0.13 s⁻¹ and the kcat/Km was determined as 50 M⁻¹ s⁻¹. Besides, in the data set “purified protein [3]”, the K0.5 is on record as 0.12 ± 0.02 mM, the catalytic constant (kcat) turned out to be 15.3 ± 1.4 s⁻¹ and the kcat/Km came out at 126000 M⁻¹ s⁻¹.

B2: DmMCO1T (Drosophila melanogaster) (protein)
chain: DIWTAEWYRNHPCNRDCQVGAEPMTCRYKFVVEWYQTFSKACYDCPRNLTDCSRPHCVMGDGLERSITVVNRMMPGPAIEVCEGDEIVVDVKNHLLGESTSIHWHGLHQKKTPYMDGVPHITQCPITPHATFRYSFPADLSGTHFWHSHTGMQRGDGVFGALIIRKPKTAEPHGGLYDFDLSEHVMIVQDWIHDTGASIFSYHHHSRGDNKPHNLLVNGKGRYYNRIWAEAKQAHRRAEERTTQPVEPLPKSQVDFVQTLPRQARLAKTNTTKLFPVNSRQKRGNLNEIPLELVPHQIYTVRRGFRYRFRIINAEYLNCPIVVSIDGHNLTAINSDGFDIEAMDVGSIVTYSGERFDFVLNANLEVGNYWIRLKGLMDCSEVFTSAFQVAILRYEGAPDEEPTAELSYGHKAEGIELNVMNRGPGYPDTKTVAEMRALPIYDHVSGIDHDTLKPEADYKFFIYYDFYTKNNPDFHDKDLYAMDMEMTQQNRLYTPQLNHITLNFPSLALLPSRSQLKDSDFCNETSLMDQGIDCRQEFCKCHHVLQVPLGAVVEMIIVDEGFQYYANHPFHLHGNAFRVMGLERLGENVTVEMIKQLDQFNLLKRNLDNPPVKDTVTIPDGGYTIIRFEASNPGYWLFHCHIEFHAEIGMALVFKVGNDDQMVPVPENFPTCGDYNPDLRSDGGTTEDSGSSKPITATPPNTGGGGSG
Take B2: in data set [4], the Km is 7.0 ± 0.93 mM, the kcat turned out to be 0.317 ± 0.0183 s⁻¹ and the kcat/Km amounted to 50 M⁻¹ s⁻¹. Besides, in data set [5], the Km was 14.4 ± 0.91 mM, the kcat amounted to 1.03 ± 0.035 s⁻¹ and the catalytic efficiency (kcat/Km) is 66.7 M⁻¹ s⁻¹. In the data set “purified protein [6]” (setting [9]), the K0.5 is 0.29 ± 0.05 mM, the catalytic constant (kcat) is 42.8 ± 5.25 s⁻¹ and the kcat/Km came out at 147000 M⁻¹ s⁻¹.

B3: TvLac-α (Trametes versicolor) (protein)
chain: AIGPVASLVVANAPVSPDGFLRDAIVVNGVVPSPLITGKKGDRFQLNVDDTLTNHSMLKSTSIHWHGFFQAGTNWADGPAFVNQCPIASGHSFLYDFHVPDQAGTFWYHSHLSTQYCDGLRGPFVVYDPKDPHASRYDVDNESTVITLTDWYHTAARLGPRFPLGADATLINGLGRSASTPTAALAVINVQHGKRYRFRLVSISCDPNYTFSIDGHNLTVIEVDGINSQPLLVDSIQIFAAQRYSFVLNANQTVGNYWVRANPNFGTVGFAGGINSAILRYQGAPVAEPTTTQTTSVIPLIETNLHPLARMPVPGSPTPGGVDKALNLAFNFNGTNFFINNATFTPPTVPVLLQILSGAQTAQDLLPAGSVYPLPAHSTIEITLPATALAPGAPHPFHLHGHAFAVVRSAGSTTYNYNDPIFRDVVSTGTPAAGDNVTIRFQTDNPGPWFLHCHIDFHLDAGFAIVFAEDVADVKAANPVPKAWSDLCPIYDGLSEANQ
Take B3: in data set [7], the Km is 0.055 ± 0.005 mM, the kcat came to 11.5 ± 0.18 s⁻¹ and the kcat/Km was found to be 210000 M⁻¹ s⁻¹. Moreover, in data set [8], the Km is 0.038 ± 0.006 mM, the kcat came out at 32.7 ± 1.22 s⁻¹ and the kcat/Km was 861000 M⁻¹ s⁻¹.

B4: AgMCO3 (Anopheles gambiae) (protein)
chain: QSWLNTLLEQSNGTLDVSTFPGEQCLRECDNTQPRICHFSWTMEHYHVMGPACRDCAKGNHTDCYHPACITADGVERGVMSLNRKIPGPTISVCRHDLIVVDITNAMAGTSAAIHWHGLHQRATPYMDGVPFITQCPIGFGNTFRYAFLATEPGTQFYHSHSGHHKVNGHYGALIVREPKRVDPNGDLYHYDTPAHVILGSDWMHIDGEMFMPGLPSAGGIMPINLLINGKGTYHDPKKNETTQTPLEVYTVRRGARFRFRFINAASHVCPLQLQIEDHMMEVIASDSFHLQPRKVDTLVSTSGERYDFVLEANGVKDTYWVRLRSLGPCADLQLEQFAVLRYTTGPFINDAFPTGAPPTYEEPFRNVATANHPNATCGRPEFGDYCITDFQAYDTDEDVINGVPDHQLTFGFYNYPVSFESMFESNRYEHYMNIYGSVMMQGAINNISLAYPPFSLLTQPEKIRDDTFCDEDNRPDSCSDRQLCTCTHRVKINLGDIVELYILDLTPSVNDLNHPFHLHGYQMFVMEMSQDRRVPITLEIAQNIARQRLLSRNTVALPPRKDTVSIPSRGYARVRFRADNPGFWLMHCHYEWHTAVGMALVLQVGETSEMVKAPADFPKCDSYTPAVGHLLQGSL
As to B4, in “purified protein [6]” (pH 7.0, Michaelis-Menten fit), the K0.5 was 0.64 ± 0.26 mM, the catalytic constant (kcat) is 2.47 s⁻¹ and the kcat/Km amounted to 3880 M⁻¹ s⁻¹.
